This series relates to P41676. As to the kind of experiment: SEC. Background: SEC sorts molecules by how far they enter the pores of the column.

Consider “PK2 C181S/C211S (full-length PK2 from the baculovirus AcMNPV, stable mutant, C-terminal His-tag)”, for which the “percent in the monomer peak” value is reported as “monomer (62%)”.

The values above are taken from article doi:10.1101/2025.02.05.636571.
